Patent publication US20260125455A1 (CLEVELAND CLINIC FOUNDATION, published 2026)

Columns and labels:
[1] = biological target: T1, human complement protein C6 (human, UniProt P13671 22-934); assay: ELISA, expression supernatant, anti-human IgG (Fab-specific) detection
T1 construct: also called human C6; C6 antigen
Experimental: (§1) The chimeric molecules, MoC601 HuG4K and MoC601 HuG1KFab, were tested for C6 binding in the form of expression supernatants. In this experiment, the human molecules were detected with an HRP-conjugated goat anti-human kappa chain reagent, which gave relative low signals. However, the binding of both chimeric molecules to C6 was confirmed. The EC₅₀ value for MoC601 HuG4K (0.43 nM) was higher than that of the mouse antibody (0.07 nM), though this was lower than in previous experiments. A further experiment was performed to find a more suitable anti-human antibody detection reagent. MoC601 HuG4K from expression supernatant was detected with three different secondary antibodies. Both anti-human IgG Fc-specific and Fab-specific detection gave higher signals than the anti-kappa chain reagent but the Fc-specific detection yielded a very low EC₅₀ (0.03 nM).

[2] = biological target: T1, human complement protein C6; assay: BLI (Octet RED384), antibody on Protein G biosensors, C6 0.27-5 nM, 1:1 fit, experiment 2
Experimental: (§2) The binding of the purified chimeric molecules, MoC601 HuG4K and MoC601 HuG1KFab, was also confirmed by ELISA, where the anti-human IgG (Fab-specific) secondary reagent was used. The control mouse antibody bound as previously (EC₅₀ 0.11 nM). The EC₅₀ for purified MoC601 HuG4K (0.27 nM) was similar to that obtained for the MoC601 HuG4K supernatant sample above. […] The EC₅₀ value for the Fab molecule (0.48 nM) was higher than for the antibody, which would be expected since the Fab is unable to bind bivalently to the antigen on the well. A C6-binding assay was also set up on the Octet RED384 instrument. […] However, MoC601 MoG1K could be stably loaded onto anti-mouse Fc (AMC) biosensors. Concentrations of the mouse and chimeric antibodies were adjusted to give similar levels of loading on to the AMC and
Protein G biosensors respectively in subsequent experiments. There was no non-specific binding of C6 protein to unloaded sensors or sensors loaded with an isotype control antibody. […] The mouse and chimeric datasets were processed by subtracting the no antigen controls and the data were fitted to a 1:1 binding model. Binding curves giving Req/Rₘₐₓ ratios>90% or showing poor fitting were excluded from analysis. A second full kinetic experiment was performed with an adjusted concentration range (six points, 0.27-5 nM) and an extended dissociation step of 20 minutes.

[3] = biological target: T1, human complement protein C6; assay: BLI (Octet), antibody on Protein G biosensors, 1:1 fit, experiment 2
[4] = biological target: human complement protein C5 (human, UniProt P01031 19-673; P01031 678-1676); assay: ELISA, C5-coated wells
[5] = biological target: T1, human complement protein C6; assay: ELISA, purified protein, anti-human IgG (Fab-specific) detection
Experimental: as §2, with “AMC and […]” for “AMC and”

[6] = biological target: T1, human complement protein C6; assay: ELISA, expression supernatant, anti-human IgG Fc-specific detection
Experimental: as §1

T1 sequence (P13671 22-934 limits assumed): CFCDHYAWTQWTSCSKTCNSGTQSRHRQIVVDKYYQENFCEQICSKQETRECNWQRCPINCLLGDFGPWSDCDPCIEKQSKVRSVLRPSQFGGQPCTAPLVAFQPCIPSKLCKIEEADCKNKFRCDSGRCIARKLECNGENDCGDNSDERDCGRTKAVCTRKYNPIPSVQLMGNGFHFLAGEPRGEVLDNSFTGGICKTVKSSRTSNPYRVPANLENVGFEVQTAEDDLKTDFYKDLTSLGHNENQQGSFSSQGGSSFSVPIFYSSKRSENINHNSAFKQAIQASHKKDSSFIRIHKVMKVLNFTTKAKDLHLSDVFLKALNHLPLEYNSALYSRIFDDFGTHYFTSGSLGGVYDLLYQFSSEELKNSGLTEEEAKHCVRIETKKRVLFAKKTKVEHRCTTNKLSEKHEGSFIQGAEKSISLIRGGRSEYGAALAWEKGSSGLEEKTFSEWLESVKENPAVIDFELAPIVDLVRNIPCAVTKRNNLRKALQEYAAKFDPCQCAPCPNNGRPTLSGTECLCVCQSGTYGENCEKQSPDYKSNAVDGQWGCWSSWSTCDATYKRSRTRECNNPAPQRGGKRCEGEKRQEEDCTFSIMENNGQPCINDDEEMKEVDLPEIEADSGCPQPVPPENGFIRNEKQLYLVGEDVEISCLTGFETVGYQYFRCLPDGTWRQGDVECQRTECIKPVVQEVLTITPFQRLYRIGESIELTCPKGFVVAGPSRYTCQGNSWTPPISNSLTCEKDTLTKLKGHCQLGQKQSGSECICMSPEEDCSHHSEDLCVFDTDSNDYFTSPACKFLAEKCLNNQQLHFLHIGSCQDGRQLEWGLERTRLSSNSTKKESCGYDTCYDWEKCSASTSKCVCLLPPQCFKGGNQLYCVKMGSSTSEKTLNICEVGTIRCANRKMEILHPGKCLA
Chain of human complement protein C5 (P01031 19-673 limits assumed, chain 1 of 2): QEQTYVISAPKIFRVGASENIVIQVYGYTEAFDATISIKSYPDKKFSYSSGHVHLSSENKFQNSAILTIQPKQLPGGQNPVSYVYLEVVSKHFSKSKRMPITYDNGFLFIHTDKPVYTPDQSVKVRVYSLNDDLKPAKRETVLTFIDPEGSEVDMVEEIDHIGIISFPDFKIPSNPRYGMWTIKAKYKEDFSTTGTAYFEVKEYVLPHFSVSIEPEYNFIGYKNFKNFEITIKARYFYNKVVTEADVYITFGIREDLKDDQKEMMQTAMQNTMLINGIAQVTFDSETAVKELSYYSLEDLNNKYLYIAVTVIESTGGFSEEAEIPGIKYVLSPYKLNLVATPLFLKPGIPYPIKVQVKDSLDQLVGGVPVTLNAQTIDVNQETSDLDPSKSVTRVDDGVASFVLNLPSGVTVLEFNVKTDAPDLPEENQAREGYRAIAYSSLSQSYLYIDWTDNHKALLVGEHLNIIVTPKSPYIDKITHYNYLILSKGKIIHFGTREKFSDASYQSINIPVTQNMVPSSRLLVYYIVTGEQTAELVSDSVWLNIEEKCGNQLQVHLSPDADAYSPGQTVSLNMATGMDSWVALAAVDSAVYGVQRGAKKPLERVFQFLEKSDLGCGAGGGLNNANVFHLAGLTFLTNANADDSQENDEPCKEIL
Chain of human complement protein C5 (P01031 678-1676 limits assumed, chain 2 of 2): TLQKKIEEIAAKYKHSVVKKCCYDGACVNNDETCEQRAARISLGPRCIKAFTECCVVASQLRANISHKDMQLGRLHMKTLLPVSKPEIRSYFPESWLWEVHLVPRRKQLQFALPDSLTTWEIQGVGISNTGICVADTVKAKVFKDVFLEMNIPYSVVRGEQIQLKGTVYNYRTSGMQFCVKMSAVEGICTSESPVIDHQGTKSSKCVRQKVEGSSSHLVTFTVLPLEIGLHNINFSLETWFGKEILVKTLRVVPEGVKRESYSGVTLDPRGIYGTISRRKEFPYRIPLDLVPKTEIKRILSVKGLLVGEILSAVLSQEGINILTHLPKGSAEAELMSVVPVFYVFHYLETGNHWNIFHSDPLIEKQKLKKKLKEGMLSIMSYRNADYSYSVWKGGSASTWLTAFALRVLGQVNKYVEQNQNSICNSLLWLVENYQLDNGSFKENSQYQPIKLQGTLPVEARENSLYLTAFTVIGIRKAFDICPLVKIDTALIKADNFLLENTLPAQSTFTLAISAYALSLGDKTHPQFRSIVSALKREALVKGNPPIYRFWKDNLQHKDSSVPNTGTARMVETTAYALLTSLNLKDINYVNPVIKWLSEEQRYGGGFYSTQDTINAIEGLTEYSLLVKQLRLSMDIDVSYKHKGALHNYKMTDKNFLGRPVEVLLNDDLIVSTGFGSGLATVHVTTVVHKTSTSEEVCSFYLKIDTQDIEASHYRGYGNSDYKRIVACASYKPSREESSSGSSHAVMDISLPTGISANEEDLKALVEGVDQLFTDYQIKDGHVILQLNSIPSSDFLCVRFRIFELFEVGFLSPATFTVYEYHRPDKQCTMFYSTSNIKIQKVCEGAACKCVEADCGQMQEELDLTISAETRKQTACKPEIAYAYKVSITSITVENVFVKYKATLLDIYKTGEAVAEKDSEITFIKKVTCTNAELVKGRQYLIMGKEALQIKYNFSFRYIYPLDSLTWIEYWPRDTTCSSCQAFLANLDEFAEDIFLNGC

EC50 [1]: 0.3 nM | Kd [2]: 0.35 nM | kon [2]: 690000 M⁻¹ s⁻¹ | Kd [3]: 0.35 nM | koff [3]: 0.00024 s⁻¹ | kon [3]: 690000 M⁻¹ s⁻¹ | binding result [4]: no binding | EC50 [5]: 0.27 nM | EC50 [6]: 0.03 nM
B1: MoC601 HuG4K (chimeric C601 antibody) (antibody, human IgG4 S228P, kappa, V domains shown)
VH: QVQLQQSGAELVKPGASVKISCKASGYAFSDYWMNWVKQRPGKGLEWIGQIYPGDDDTNYNGKFKGKATLTADKSSSTAYMQLSSLTSEDSAVYFCAREGYYGYTYVEYFDVWGTGTTVTVSS
VL: QIVLTQSPAIMSVSPGEKVTLTCSASSSVSYMHWYQQKSGTSPKRWIYDTSKLASGVPARFSGSGSGTSYSLTISSMEAEDAATYYCQQWTSNPLTFGAGTKLELRR
notes: also called chimeric antibody; chimeric 1C9
